Here are results for 1 molecule from patent US20120020985A1 (MEDICAL RESEARCH COUNCIL, published 2012).

Assay in all cases: ELISA, receptor coated at 2 ug/ml, streptavidin-HRP, A405
The target in assay [1] is T1, rmIL-17RC (mouse, UniProt Q8K4C2 22-464, limits assumed).
T1 construct: Bought from R&D Systems, catalog 2270-ML; also called mouse IL-17RC; IL-17C receptor
T1 sequence (looked up): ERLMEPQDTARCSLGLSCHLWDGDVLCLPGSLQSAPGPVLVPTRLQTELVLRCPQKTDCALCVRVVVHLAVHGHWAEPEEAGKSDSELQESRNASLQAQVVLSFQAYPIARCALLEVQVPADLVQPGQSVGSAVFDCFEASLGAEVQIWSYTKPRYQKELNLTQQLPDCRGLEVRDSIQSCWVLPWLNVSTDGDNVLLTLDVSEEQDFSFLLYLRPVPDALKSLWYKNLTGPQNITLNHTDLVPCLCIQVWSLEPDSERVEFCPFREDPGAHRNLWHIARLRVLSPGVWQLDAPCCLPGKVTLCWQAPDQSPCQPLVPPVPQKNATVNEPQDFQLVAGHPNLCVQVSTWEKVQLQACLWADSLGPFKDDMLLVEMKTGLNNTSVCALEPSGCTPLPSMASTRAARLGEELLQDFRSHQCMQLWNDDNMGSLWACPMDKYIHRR
The method, then: (§1) In brief, ELISA plates were coated with IL-17R-family members; IL-17RA, IL-17BR, IL-17RC or IL-17RD, or IL-13Rα control, at 2 μg/ml, incubated overnight at 4° C., washed in PBS/0.05% tween and blocked in PBS/10% FCS at room temperature for 4 hrs. Biotinylated D9.2 binding was detected using streptavidin-HRP and ELISA development solution and measuring absorbance at 405 nm.
(§2) ELISA plates were coated with IL-17R-family members; IL-17RA, IL-17BR, IL-17RC, or IL-17RD, or IL-13Rα control (R&D Systems) at 2 μg/ml overnight at 4° C. before washing in PBS/0.05% tween and blocking in PBS/10% FCS at room temperature for 4 hrs. Biotinylated D9.2 was added at 1 μg/ml in PBS/10% FCS and incubated overnight at 4° C. Plates were then washed before streptavidin-HRP was added and incubated for 1 hr at room temperature. Plates were then washed a final time before adding ELISA development solution and measuring the absorbance at 405 nm.

Assay [2] deals with T2, rmIL-17RA-Fc (mouse, UniProt Q60943 32-322).
T2 construct: Bought from R&D Systems, catalog 4481-MR; also called mouse IL-17RA; IL-17A receptor; not shown: Fc portion, not described
T2 sequence (looked up): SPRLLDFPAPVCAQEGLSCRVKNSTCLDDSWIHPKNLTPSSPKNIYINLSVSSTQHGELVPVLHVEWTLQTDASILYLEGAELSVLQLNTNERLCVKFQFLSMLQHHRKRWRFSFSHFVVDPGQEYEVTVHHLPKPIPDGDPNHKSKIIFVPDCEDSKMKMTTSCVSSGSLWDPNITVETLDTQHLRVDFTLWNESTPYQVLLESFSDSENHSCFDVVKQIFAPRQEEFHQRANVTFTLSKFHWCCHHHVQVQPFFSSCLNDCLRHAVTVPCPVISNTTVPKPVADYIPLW
The method, then:
as §1, §2

The target in assay [3] is T3, rhIL-17RC (human, UniProt Q8NAC3-2 21-467, limits assumed).
T3 construct: Bought from R&D Systems, catalog 2269-IL; also called human IL-17RC; IL-17C receptor
T3 sequence (looked up): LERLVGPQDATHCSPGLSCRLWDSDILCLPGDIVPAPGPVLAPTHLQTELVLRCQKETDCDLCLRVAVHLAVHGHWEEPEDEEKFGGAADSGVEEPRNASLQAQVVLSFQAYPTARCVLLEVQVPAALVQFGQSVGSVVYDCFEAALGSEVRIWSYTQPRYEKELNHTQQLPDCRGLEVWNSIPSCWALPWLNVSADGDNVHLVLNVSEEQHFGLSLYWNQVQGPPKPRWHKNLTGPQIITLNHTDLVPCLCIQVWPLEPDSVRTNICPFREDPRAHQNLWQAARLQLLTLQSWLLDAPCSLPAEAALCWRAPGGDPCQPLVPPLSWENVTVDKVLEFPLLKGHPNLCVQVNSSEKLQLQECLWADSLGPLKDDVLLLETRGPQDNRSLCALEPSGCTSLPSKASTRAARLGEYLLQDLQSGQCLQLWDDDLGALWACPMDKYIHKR
Here is the method: as §1, §2

The target of assay [4] is T4, rmIL-17RD (Sef) (mouse, UniProt Q8JZL1 27-299, limits assumed).
T4 construct: Bought from R&D Systems, catalog 2276-ML; also called mouse IL-17RD; IL-17D receptor
T4 sequence (looked up): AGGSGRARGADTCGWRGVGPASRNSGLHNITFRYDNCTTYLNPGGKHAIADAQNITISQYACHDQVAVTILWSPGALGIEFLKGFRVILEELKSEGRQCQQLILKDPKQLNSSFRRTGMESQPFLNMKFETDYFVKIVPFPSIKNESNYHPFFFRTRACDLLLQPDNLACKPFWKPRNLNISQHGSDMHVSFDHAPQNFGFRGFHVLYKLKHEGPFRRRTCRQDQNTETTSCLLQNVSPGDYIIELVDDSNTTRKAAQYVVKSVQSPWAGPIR
The method, then:
as §1, §2

Assay [5] concerns the target T5, rhIL-17RA-Fc (human, UniProt Q96F46 33-320).
T5 construct: Bought from R&D Systems, catalog 177-IR; also called human IL-17RA; IL-17A receptor; not shown: Fc portion, not described
T5 sequence (looked up): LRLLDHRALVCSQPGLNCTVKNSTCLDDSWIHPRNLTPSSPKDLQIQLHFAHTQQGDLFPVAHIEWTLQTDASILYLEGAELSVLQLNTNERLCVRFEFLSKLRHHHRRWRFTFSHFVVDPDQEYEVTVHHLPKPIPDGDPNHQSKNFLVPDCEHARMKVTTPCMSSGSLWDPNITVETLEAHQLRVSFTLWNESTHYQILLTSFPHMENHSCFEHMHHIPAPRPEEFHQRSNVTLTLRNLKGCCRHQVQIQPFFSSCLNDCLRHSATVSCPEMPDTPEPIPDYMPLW
The method, then: as §1, §2

Assay [6] addresses T6, rhIL-17RD (Sef) (human, UniProt Q8NFM7 27-299, limits assumed).
T6 construct: Bought from R&D Systems, catalog 2275-IL; also called human IL-17RD; IL-17D receptor
T6 sequence (looked up): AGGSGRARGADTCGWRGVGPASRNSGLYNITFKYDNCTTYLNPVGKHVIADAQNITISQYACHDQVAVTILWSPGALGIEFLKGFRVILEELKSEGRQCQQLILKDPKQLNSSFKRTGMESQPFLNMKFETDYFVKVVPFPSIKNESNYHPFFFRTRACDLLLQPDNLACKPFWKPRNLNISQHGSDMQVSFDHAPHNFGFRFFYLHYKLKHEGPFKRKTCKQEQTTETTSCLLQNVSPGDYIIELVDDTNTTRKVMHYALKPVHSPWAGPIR
Here is the method: as §1, §2

B1: anti-IL-17BR clone D9.2 (antibody, V domains shown)
VH: QVQLQQPGAELVRPGASVKLSCKTSGYTFISYWMNWVKQGGPEQGLEWIGRIDPYDSEIQYNQKFKDKAILTVDKSSSAAYMQLISLTSEDSAVYYCARSGGFDWFAYWGQGTLVTVS
VL: DIQMTQSPASLSVSVGETVTITCRASENINSNLAWYQQKKGKSPQLLVYDVTNLADGVPSRFSGSGSGTQYSLKINSLQSEDFGSYYCQHFWRPPYTFGGGTNLEIK
notes: Mouse monoclonal from a hybridoma; heavy chain amplified with an IgG1 constant region primer and light chain with a kappa primer (mouse IgG1 kappa); also called mouse monoclonal antibody D9.2; D9.2 antibody clone
Consider B1, for which the binding result in assay [1], in assay [2], in assay [3], in assay [4], in assay [5] and in assay [6] was “no binding (tested: 1 ug/ml biotinylated D9.2)” each time.
